Here are results for twelve substances from patent US12648572B2, “Proteolytically stable U1-agatoxin-Ta1b variant polypeptides for pest control” (Vestaron Corporation, priority 2020, dated 2026).

Values joined by “and” are separate entries in the source; they are usually repeats but may differ in a detail not shown here. Equal values may be shown once.

Data set [1] concerns Manduca Gut Extract (MGE). The data set is described as follows: Manduca Gut Extract (MGE) digest of TVPs. The following applies: for Fold Stability Improvement: in the presence of MGE, relative to Ta1b; for Half Life (min) Manduca Gut Extract (MGE): 1 mg/mL TVP, 1/10 diluted MGE, 50 mM Tris-HCl pH 8.8; for Fold Change (MGE): half life relative to WT Ta1b. Type of data set: in vitro ADME, Manduca sexta. As to the method:
(§1) To determine the stability of TVPs when exposed to lepidopteran gut proteases. Briefly, 5th instar Manduca sexta were dissected by making a small incision to the intestinal lining such that gut contents could be collected in a tube. Multiple dissections were pooled and kept on ice for immediate use, or stored at −80° C. for future use. The isolated midgut (referred to hereinafter as Manduca Gut Extract, or MGE) was then for digest assays. Next, 1 mg/mL TVP was incubated with 0.1 mg/mL bovine trypsin, or 1/10 diluted MGE with 50 mM Tris-HCl, pH 8.8 to maintain alkaline pH. Time points were taken and the digest quenched with the addition of 200 mM HCl. Degradation was quantified by HPLC analysis and rates were determined by fit to a single exponential decay.
(§2) TVPs were assessed for stability in the presence of MGE (as described above). Activity was assessed by injection into houseflies (Musca domestica): […] intrathoracically into houseflies with an average mass of 18 mg. The dose required for 50% knockdown and mortality was determined at 24 hour post-injection.

In data set [2] the test system is houseflies (Musca domestica). The data set can be described thus: Housefly injection assay. The settings on record: for Activity relative to wild-type Ta1b, in words: housefly injection; for Fold Activity Reduction: housefly intrathoracic injection, 24 hour post-injection, relative to wild-type Ta1b; for Fly KD50: dose for 50% knockdown, 24 hours post-injection. The data set is classed as in vivo. As to the method:
as §2
Activity of the TVPs identified in the mutant stability assay were assessed by injection into houseflies (Musca domestica). Wild-type Ta1b and the TVPs with amino acid substitutions at positions R9Q and R9N were injected intrathoracically into houseflies with an average mass of 18 mg, at an injection dose of 0.5 μL of toxin or control. The dose of TVP required for 50% knockdown (KD50) was then determined at 24-hours post-injection. […] FIG. 2.
The TVPs: (1) TVP-R9Q; (2) TVP-R9QΔG; (3) TVP-R9Q/T43A/ΔG; (4) TVP-R9Q/T43A; and (5) TVP-R9Q/T43A/ΔK-G, were analyzed in a housefly injection assay. Housefly injections were performed as previously described herein.

In the next data set the target is T1, bovine trypsin (Bos taurus, UniProt P00760).
T1 sequence (P00760 24-246): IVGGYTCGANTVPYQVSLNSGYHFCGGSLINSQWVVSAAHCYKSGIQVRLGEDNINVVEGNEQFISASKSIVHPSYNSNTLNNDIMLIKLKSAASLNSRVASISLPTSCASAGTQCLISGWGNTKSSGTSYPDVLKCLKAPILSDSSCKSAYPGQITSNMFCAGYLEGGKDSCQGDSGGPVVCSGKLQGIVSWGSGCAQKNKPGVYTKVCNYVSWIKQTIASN
The data set can be described thus: Bovine trypsin digest of TVPs. Type of data set: in vitro ADME. The following applies: for Half Life (min) Bovine Trypsin: 1 mg/mL TVP, 0.1 mg/mL bovine trypsin, 50 mM Tris-HCl pH 8.8; for Trypsin digestion, in words: alanine scan of basic amino acids; for Fold Change (Trypsin): half life relative to WT Ta1b. As to the method:
as §1
Lepidopteran gut contains trypsin-like proteases that cut after Arg or Lys amino acids; without wishing to be bound by any particular theory, we hypothesized that singly mutating these amino acids to alanine could identify the site(s) that are causing degradation in lepidopteran gut. To test the foregoing hypothesis, TVPs were created by individually mutating each basic amino acid to alanine present in the wild-type Ta1b amino acid sequence. Next, the stability of each of these TVPs was assessed by confronting the TVPs with the digestion conditions as described above.

Data set [3] relates to Helicoverpa gut extract (HGE). The data set is described as follows: Helicoverpa gut extract (HGE) digest, position 9 scan. The data set is classed as in vitro ADME, Helicoverpa zea. The following applies: for Half-Life: 30 mM Tris-HCl pH 8.8, time points 0, 3, 22.5 hours. As to the method:
To determine the stability of TVPs when exposed to lepidopteran gut proteases, early fifth instar Helicoverpa zea larvae were dissected to remove the intact digestive tract from other tissues and hemolymph. To obtain the Helicoverpa gut extract (HGE), a small incision was made to the intestinal lining such that gut contents could be collected in a tube. Multiple dissections were pooled and kept on ice for immediate use, or stored at −80° C. for future use.
Wild-type Ta1b (SEQ ID NO: 1) was used as a template, and mutated at amino acid substitution at position 9, (i.e., R9; SEQ ID NO: 1) to produce the TVPs evaluated here; these TVPs have a substitution of the arginine at position 9 (i.e., R9) of the wild-type amino acid sequence (SEQ ID NO: 1), with one of the amino acids F, P, Y, K, W, H, A, G, N, L, D, V, M, I, Q, C, E, T, and S; in addition, a TVP with an R9Q+T43A mutation (relative to wild-type Ta1b) was likewise evaluated (SEQ ID NO: 85).
The TVPs described above and shown in Table 19 were confronted with Helicoverpa gut extract (HGE) to simulate digestion in the lepidopteran gut environment. Here, the TVPs were incubated with 6× diluted amount of HGE obtained from Helicoverpa deep well cell growths. The 6× diluted UGE was supplemented with 30 mM Tris-HCl, pH 8.8, to maintain the alkaline pH of the Helicoverpa gut environment.
Samples of the digested TVPs were collected at time points of 0, 3, and 22.5 hours. To quench the digestion process, 30 mM Glycine, pH 2.0 was added to the samples, and the samples of the digested TVPs were immediately analyzed using reverse-phase HPLC to quantify the TVP peak area.

Data set [4] concerns neonate corn earworm (Helicoverpa zea). The data set is described as follows: Corn earworm oral foliar bioassay. The data set is classed as in vivo. The following applies: sprayed lettuce leaf discs, fourth day, ± standard error of the mean. As to the method: In the oral foliar bioassay, the experimental unit consisted of 12 leaf discs (per peptide concentration) sprayed (front and back) with a total spray volume of 5.5 mL (2.75 mL for each side) on which neonate corn earworm (Helicoverpa zea) were allowed to feed. There were four experimental replicates per peptide.
Romaine lettuce was cut into 30 mm diameter disks, and then sterilized using a 140 ppm bleach solution; the disks were then triple rinsed in water. The romaine lettuce disks were then pinned to a Styrofoam board and sprayed with a given treatment; the disks were flipped, sprayed again, allowed to dry, and placed in the arena.
The arena was 32-well rearing tray containing 5 mL of 1% agar. One romaine lettuce disk was placed in each well, with a single first instar corn earworm (Helicoverpa zea) per leaf disk. The trays were then placed in a 28° C. Incubator.
Mortality of the corn earworms was evaluated on the fourth day after spraying and larvae application to the leaf discs. Larvae were scored as either alive (moving and feeding normally) or dead (immobile, discolored).

In data set [5] the test system is corn earworm (Helicoverpa zea). The data set can be described thus: Corn earworm injection assay. The following applies: fourth instar larvae, 24 hours after injection; ± standard error of the mean. The data set is classed as in vivo. As to the method:
First, WT Ta1b (WT) and the R9Q mutant of Ta1b (TVP-R9Q) were evaluated in a lepidopteran injection assay. The experimental unit consisted of 8 injected individual corn earworm (Helicoverpa zea) per peptide dose. There were four experimental replicates per peptide. Prior to injection, corn earworm larvae were reared to their fourth instar on standard lepidoptera diet. The larvae were weighed to determine accurate dose calculations. The exact doses varied slightly between replicates because of variations in corn earworm larvae mass, but the approximate doses injected were: 1000, 2000, 4000, and 8000 pmol/g. Injections were performed using a hand microapplicator and a syringe fitted with a 30 gauge needle. Larvae were injected at the base of one of their most posterior prolegs. Larvae were injected with 1 μL of treatment solution.
After injection, larvae were placed in a well of a 32-well tray filled with 5 mL of standard lepidoptera diet. The trays were then placed in a 28° C. Incubator. The condition of the larvae were evaluated 24 hours after injection.

As for “A8N: TVP with substitution A8N (EPDEICRNRMTNKEFTYKSNVCNNCGDQVAACEAECFRNDVYTACHEAQKG; listed as Eratigena agrestis)”, the “Fold Stability Improvement” value in data set [1] turned out to be 1.8 fold.
As to “A8S: TVP with substitution A8S (EPDEICRSRMTNKEFTYKSNVCNNCGDQVAACEAECFRNDVYTACHEAQKG; listed as Eratigena agrestis)”, in data set [2], the “Activity relative to wild-type Ta1b, in words” value was “maintain activity similar to the native Ta1b” and the “Fold Activity Reduction” value is recorded as 1.3 fold. Moreover, in data set [1], the “Digestibility by Manduca Gut Extract (MGE), in words” value (shortened to “Digestibility by Manduca Gut Extract”) is given as “significant reduction in digestibility” and the “Fold Stability Improvement” value was 12.1 fold.
In the case of “EPDEICRAAMTNKEFTYKSNVCNNCGDQVAACEAECFRNDVYTACHEAQKG (TVP-R9A)”, the “Fold Activity Reduction” value in data set [2] was 9 fold and 8.7 fold. For the same substance, in the data set with bovine trypsin, the “Half Life (min) Bovine Trypsin” value was above 6000 min; the “Trypsin digestion, in words” value is given as “completely abolished trypsin digestion”; the “Fold Change (Trypsin)” value is recorded as above 20 fold. In data set [1], the “Half Life (min) Manduca Gut Extract (MGE)” value (from here on “Half Life … (MGE)”) stood at 370 min, the “Fold Change (MGE)” value turned out to be 247 fold and the “Fold Stability Improvement” value was found to be 247 fold.
As to “EPDEICRAEMTNKEFTYKSNVCNNCGDQVAACEAECFRNDVYTACHEAQKG (TVP-R9E)”, in data set [2], the “Fold Activity Reduction” value is above 10 fold.
“EPDEICRAHMTNKEFTYKSNVCNNCGDQVAACEAECFRNDVYTACHEAQKG (TVP-R9H)”: the “Fold Activity Reduction” value in data set [2] came out at 2.5 fold. Besides, the “Fold Stability Improvement” value in data set [1] was 16.2 fold.
For “EPDEICRANMTNKEFTYKSNVCNNCGDQVAACEAECFRNDVYTACHEAQKG (TVP-R9N)”, in data set [2], the “Activity relative to wild-type Ta1b, in words” value is on record as “maintain activity similar to the native Ta1b” and the “Fold Activity Reduction” value is listed as 1.5 fold. Also, in data set [1], the “Digestibility by Manduca Gut Extract” value is on record as “significant reduction in digestibility” and the “Fold Stability Improvement” value is above 50 fold.
In the case of “EPDEICRARMTNKEFTYKSNVCNNCGDQVAACEAECFRNDVYTACHEAQKG (listed as Eratigena agrestis) [WT Ta1b, reference compound]”, the “Half-Life” value in data set [3] (6× diluted HGE) was 1.9 h. Moreover, the “Fly KD50” value in data set [2] is on record as 167 pmol/g. The “Half Life (min) Bovine Trypsin” value in the data set with bovine trypsin is on record as 288 min. Moreover, the “Half Life … (MGE)” value in data set [1] stood at 1.5 min. The “Oral Bioassay % Mortality at 3 ppt” value in data set [4] was 6 ± 3%. The “Injection LD50” value in data set [5] worked out at 2933 ± 827 pmol/g.
Regarding “EPDEICRATMTNKEFTYKSNVCNNCGDQVAACEAECFRNDVYTACHEAQKG (TVP-R9T) [T (Position 9)]”, in data set [3] (6× diluted HGE), the “Result (Stable/Unstable)” value is on record as “Stable” and the “Half-Life” value stood at 95.8 h. The “Gut extract digestion, in words” value in data set [3] (6× diluted gut extract, relative to wild type Ta1b) was “completely abolished UGE digestion”.
For “K18A: TVP: wild-type Ta1b with basic amino acid K18 mutated to alanine (EPDEICRARMTNKEFTYASNVCNNCGDQVAACEAECFRNDVYTACHEAQKG; listed as Eratigena agrestis)”, in the data set with bovine trypsin, the “Half Life (min) Bovine Trypsin” value is 1194 min; the “Trypsin digestion, in words” value is listed as “modest, albeit significant reduction in digestibility”; the “Fold Change (Trypsin)” value is 4.1 fold.
In the case of “R38A: TVP: wild-type Ta1b with basic amino acid R38 mutated to alanine (EPDEICRARMTNKEFTYKSNVCNNCGDQVAACEAECFANDVYTACHEAQKG; listed as Eratigena agrestis)”, in data set [2], the “Activity relative to wild-type Ta1b, in words” value was “did not show any reduction in activity” and the “Fold Activity Reduction” value is listed as 1.0 fold. For the same substance, in the data set with bovine trypsin, the “Half Life (min) Bovine Trypsin” value amounted to 1860 min; the “Trypsin digestion, in words” value is recorded as “modest, albeit significant reduction in digestibility”; the “Fold Change (Trypsin)” value came out at 6.5 fold. In addition, in data set [1], the “Half Life … (MGE)” value is given as 19 min, the “Fold Change (MGE)” value amounted to 8.6 fold and the “Fold Stability Improvement” value is 8.6 fold.
For “T11P: TVP with substitution T11P (EPDEICRARMPNKEFTYKSNVCNNCGDQVAACEAECFRNDVYTACHEAQKG; listed as Eratigena agrestis)”, in data set [2], the “Activity relative to wild-type Ta1b, in words” value is recorded as “maintain activity similar to the native Ta1b” and the “Fold Activity Reduction” value was 1.4 fold. Moreover, in data set [1], the “Digestibility by Manduca Gut Extract” value is recorded as “significant reduction in digestibility” and the “Fold Stability Improvement” value is 92.9 fold.
Regarding “TVP-R9Q/ΔG: TVP-R9Q with the C-terminal glycine removed (EPDEICRAQMTNKEFTYKSNVCNNCGDQVAACEAECFRNDVYTACHEAQK; C-terminal Gly deleted; TVP-R9QdG)”, in data set [2], the “Fly KD50” value came to 136 pmol/g.
